Laboratory results reported in paper PMC11255897.

Target: Ras binding domain (RBD) of the yeast Ras effector Byr2 fused to GST
Test: pull-down with GST-Byr2(RBD), Flag immunoblot densitometry
Conditions: read off a plot; for percent of parent (% of RasC(WT)-CA binding) / percent of parent (% of wild-type RasC peak (10 s cAMP)): parent: est. 100; for percent of parent (% of wild-type RasC peak (10 s cAMP)): 10 s cAMP stimulation; for response (% of wild-type RasC peak (10 s cAMP)): basal (before cAMP stimulation), parent: est. 20

Row | Substance | percent of parent (% of RasC(WT)-CA binding) | percent of parent (% of wild-type RasC peak (10 s cAMP)) | response (% of wild-type RasC peak (10 s cAMP)) | response (% of RasC(WT)-CA binding) (parent: est. 15)
1 | constitutively active (CA) RasC-Q62L mutant, Flag-tagged (from UniProt P32253) A31D | 240 |  |  | 
2 | constitutively active (CA) RasC-Q62L mutant, Flag-tagged (from UniProt P32253) A31K | 290 |  |  | 
3 | constitutively active (CA) RasC-Q62L mutant, Flag-tagged (from UniProt P32253) K138A; R164A; K167A | 180 |  |  | 
4 | constitutively active (CA) RasC-Q62L mutant, Flag-tagged (from UniProt P32253) Y41A | 12 |  |  | 
5 | wild-type Flag-RasC (from UniProt P32253) A31D |  | 42 | 27 | 
6 | wild-type Flag-RasC (from UniProt P32253) E38A |  | 10 | 5 | 
7 | wild-type Flag-RasC (from UniProt P32253) K138A; R164A; K167A |  | 100 |  | 
8 | wild-type Flag-RasC (from UniProt P32253) Q62L |  |  |  | 100
9 | wild-type Flag-RasC (from UniProt P32253) Y41A |  | 23 |  | 

Results, then the substance that gave them:

Row | percent of parent (% of RasC(WT)-CA binding) | percent of parent (% of wild-type RasC peak (10 s cAMP)) | response (% of wild-type RasC peak (10 s cAMP)) | response (% of RasC(WT)-CA binding) (parent: est. 15) | Substance
10 | 200 |  |  |  | constitutively active (CA) RasC-Q62L mutant, Flag-tagged (from UniProt P32253) A31L
11 | 210 |  |  |  | constitutively active (CA) RasC-Q62L mutant, Flag-tagged (from UniProt P32253) K182A; K183A; R184A
12 |  | 130 | 28 |  | wild-type Flag-RasC (from UniProt P32253) A31K
13 |  | 170 | 35 |  | wild-type Flag-RasC (from UniProt P32253) A31L
14 |  | 2 | 2 |  | wild-type Flag-RasC (from UniProt P32253) C186A
15 |  | 18 | 19 |  | wild-type Flag-RasC (from UniProt P32253) E38A; N39A; S40A
16 |  | 17 | 8 |  | wild-type Flag-RasC (from UniProt P32253) K182A; K183A; R184A
17 |  | 8 | 11 |  | wild-type Flag-RasC (from UniProt P32253) T36A
